Experimental data reported in the supplement of paper PMC10567573.
± gives the standard deviation.

Assay: protein stability index of a GFP-peptide fusion (GPS, HEK-293T) (PSI 1-6); higher = more stable
[1] = treatment: DMSO, c terminus: a fixed tail appended
[2] = treatment: MLN4924 1 uM, 8 h, c terminus: a fixed tail appended
[3] = treatment: DMSO, c terminus: native
[4] = treatment: MLN4924 1 uM, 8 h, c terminus: native
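Also: 24-mer peptide tiles fused after GFP, lentivirally expressed, FACS-sorted into six equal bins by GFP/DsRed ratio, decoded by Illumina sequencing, PSI is the read-weighted mean bin number.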

Sequence	protein stability index [1]	protein stability index [2]	protein stability index [3]	protein stability index [4]
GVHVRRTDKVGTEAAFHPIEEYMV [FUT8]	3.36 ± 0.29	3.58 ± 0.27	–	–
GVPGQPLNFKAEPESETSILLSWT [PTPRD]	2.83 ± 0.27	2.98 ± 0.49	–	–
GWKSMIQSHPHLVAEAFRALASAQ [SPOPL]	2.4 ± 0.44	2.3 ± 0.17	–	–
HCIQQILESVNHCHLNGIVHRDLK [CAMK2D]	2.26 ± 0.047	2.36 ± 0.5	–	–
HDKIRPISSIGQVQSYMEHYCNSS [SPACA9]	3.6 ± 0.4	3.72 ± 0.18	–	–
HEKIGFPAARRCHSCVQIKNDVFI [KLHDC10]	1.89 ± 0.31	1.73 ± 0.27	–	–
HFAAASTHGALCLELLVNNGADVN [ANKRD44]	2.73 ± 0.23	2.62 ± 0.38	–	–
HFLSKMPEAEENKQIIRKHAQTFV [CCND1]	3.39 ± 0.21	3.43 ± 0.29	–	–
HGISIPEPEDMETLEEKFSDVHPV [CDKL4]	5.29 ± 0.2	4.98 ± 0.28	–	–
HHSLQAHFRPRFHPLPTVIIVNLL [TMEM192]	2.68 ± 0.28	2.35 ± 0.48	–	–
HITKTVKGGISETRIEKRIVITGD [EPB41L3]	3.85 ± 0.28	3.96 ± 0.12	–	–
HIWELSSIKNSLKVAAISESPVAE [PTGFR]	3.11 ± 0.28	3.21 ± 0.39	–	–
HKADSIQGTARTLSPVLESPRDLQ [TNXB]	4.75 ± 0.18	4.9 ± 0.14	–	–
HLRNKTEDLEATSEHFKTTSQKVA [VAMP8]	5.01 ± 0.24	5.07 ± 0.14	–	–
HLVAGGGAGAVSRTCTAPLDRLKV [SLC25A25]	3.11 ± 0.35	3.25 ± 0.22	–	–
HMEEEVEDFLLKKPIVPTDGKRVI [CDC25A]	4.68 ± 0.096	4.84 ± 0.24	–	–
HPPPSTPIKLEEGDGCAREYLLP [ADD1]	–	–	5.13 ± 0.2	4.81 ± 0.09
HQRTHTGEKPFTCHECGKKFSQNS [ZNF75A]	3.14 ± 0.27	3.47 ± 0.33	–	–
HRLGSPYGHCTAGGEGVEVELLHN [SCNN1D]	3.9 ± 0.34	3.82 ± 0.37	–	–
HRNQCQYCRLKKCLKVGMRREAVQ [NR2F2]	2.39 ± 0.47	2.57 ± 0.57	–	–
HRRRNQLIKKKKEELEAKRLQCPF [FAM107A]	3.95 ± 0.38	4.22 ± 0.16	–	–
HRRTVKMRKGNTMQQFLQKALEIL [FAM50A]	3.08 ± 0.36	2.77 ± 0.42	–	–

Sequence	protein stability index [1]	protein stability index [2]	protein stability index [3]	protein stability index [4]
HRYIAYMANQEAAIQAFLDKCSAP [IQUB]	2.51 ± 0.2	2.38 ± 0.46	–	–
HSSWTPPNAQYWSQFHSVRPQGPQ [DNAJC4]	3.23 ± 0.053	3.34 ± 0.22	–	–
HTLRASMRELGLLIFFLFIGVILF [KCNA4]	2.86 ± 0.53	2.61 ± 0.49	–	–
HTPTPFKNALEKYGPLKPLPQTPH [MYBL2]	3.56 ± 0.28	3.91 ± 0.35	–	–
HVKMMLSGVCLFAVFIALLPILGH [PTGFR]	2.97 ± 0.83	2.79 ± 0.78	–	–
HVTCVDQSEHTMVLRCQLSAEEVR [C2CD2L]	3.73 ± 0.19	3.82 ± 0.18	–	–
HYPFLGAMGDHSKKKPGTAMCVGC [ISL2]	2.86 ± 0.34	3.25 ± 0.43	–	–
HYSLLTSQPLDREATSHYIIELLA [PCDHGC5]	2.36 ± 0.13	2.63 ± 0.32	–	–
IAERLGCTLPQLAIAWCLRNEGVS [KCNAB2]	2.88 ± 0.44	2.71 ± 0.66	–	–
IAIPEWFLSENATVAAETRAVIAW [CPXM2]	2.24 ± 0.25	2.08 ± 0.14	–	–
IAVLGIVMLKRIHSLYRRTGASFQ [SCAMP3]	2.34 ± 0.53	2.25 ± 0.18	–	–
IAWIKDKLLHIYYQNSIDDRLLVE [PDS5B]	2.82 ± 0.36	2.43 ± 0.44	–	–
IEGLKEELAYLRKNHEEEMLALRG [KRT16]	3.79 ± 0.35	3.77 ± 0.32	–	–
IEITFSYWDGSGHRRTVKMRKGNT [FAM50A]	2.27 ± 0.25	2.19 ± 0.18	–	–
IGTQGPLENTYRDFWLMVWEQKVL [PTPN9]	2.31 ± 0.24	1.79 ± 0.29	–	–
IHAELSKLVKKHAAQRSTETALYR [FKBP8]	2.94 ± 0.31	2.69 ± 0.44	–	–
IHHLVLTASDGGDPLRSGTVLVSV [PCDHGA10]	2.97 ± 0.45	2.79 ± 0.34	–	–
IIHETAVGMNFLHCMAPPLLHLDL [RIPK4]	2.6 ± 0.64	2.57 ± 0.85	–	–
IIIYLGPMVLMIIVMCVQIKCFHE [CDS2]	3.13 ± 0.53	3.19 ± 0.24	–	–
IKCETSPPSSPRTLRLEKLGHPAL [PPFIA4]	3.48 ± 0.35	3.56 ± 0.22	–	–
IKEIDEHAPGVPKILVGNRLHLAF [RAB40B]	1.93 ± 0.33	2.19 ± 0.36	–	–
IKQLRSGGTPIRGALQIEQSEESD [PTPRD]	4.98 ± 0.36	5.15 ± 0.21	–	–

Sequence	protein stability index [1]	protein stability index [2]	protein stability index [3]	protein stability index [4]
ILEFAEKEGMVSSGQNLLAVESQ [PTPN9]	–	–	2.96 ± 0.65	3.03 ± 0.37
INSGYETRRKKGKKDKDISKEKDT [KMT2E]	4.59 ± 0.13	4.78 ± 0.16	–	–
IPSTQFDAAHPTNVQRLAEPSQML [CTNNB1]	4.24 ± 0.18	4.34 ± 0.09	–	–
IQDKLFQVAKREREAATKHSKASL [CHCHD6]	3.86 ± 0.47	4.14 ± 0.22	–	–
IQFIKLFGMAKIDNLLQEMLLGGS [HNF4A]	2.84 ± 0.72	3.11 ± 0.61	–	–
IQYNRRQLLILLQNCTDEGEREAI [POP5]	2.74 ± 0.3	2.78 ± 0.51	–	–
ISIPITGDTLRTFSLVLVLDLSKP [DYNC2LI1]	2.69 ± 0.62	2.865 ± 0.02	–	–
ISWAFTDRPDLSLTVLPKLQARER [C2CD2L]	2.68 ± 0.28	2.71 ± 0.43	–	–
ITLLILAELLIFSVPIVYEKYKTQ [RTN3]	3.41 ± 0.32	3.4 ± 0.94	–	–
ITWFKDFLPVDTSNNNGRIKQLRS [PTPRD]	2.47 ± 0.52	2.96 ± 0.3	–	–
IVTWFMLLYAQGLLAIQFLEFFYG [SLC19A2]	3.28 ± 0.52	3.18 ± 0.46	–	–
IYQTLFLNGENSDIKICALGEEWS [GMCL1]	2.26 ± 0.18	2.16 ± 0.19	–	–
KAKRNRTCRPPSSSESSSDSDNSG [ANKRD17]	5.64 ± 0.27	5.43 ± 0.2	–	–
KALQEENRDLRKASVTIQARAEQE [CCDC6]	5.32 ± 0.2	5.32 ± 0.091	–	–
KAMNMRYSDRTNIISKPVPQTLIM [FEM1C]	2.09 ± 0.14	2.38 ± 0.5	–	–
KAVKYQSKARRKKIMIIICCVILG [STX1A]	2.18 ± 0.8	2.25 ± 0.43	–	–
KCHLWTAMDLGFFVVMGVIGGLLG [CLCN6]	3.14 ± 0.38	3 ± 0.24	–	–
KDEDLDLFPASPTREAHRESSVPV [FBF1]	5.11 ± 0.33	5.02 ± 0.35	–	–
KDIDMFSMCEHHLVPFVGKVHIGY [GCH1]	2.34 ± 0.76	2.27 ± 0.36	–	–
KEDIDLIDILWRQDIDLGAGREVF [NFE2L1]	2.75 ± 0.57	3.47 ± 0.88	–	–
KEDQAWDGASQDCPPLPAGVSFHI [FBXO34]	3.58 ± 0.33	3.46 ± 0.31	–	–
